Test results taken from the supplement of paper PMC9170038.

Test system: K4 kissing-loop RNA reporter
Experiment: apparent KD of K4 kissing-loop reporter; higher = weaker reporter binding
Conditions: Eterna round: R107; input ligand: theophylline 20 uM
Procedure: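 RNA-MaP round R107: designed RNA switches with theophylline, tryptophan, arginine or FMN aptamers are transcribed on-chip within common flanks. They are titrated with a labelled K4 kissing-loop RNA reporter in RNA-MaP buffer (100 mM Tris pH 7.5, 80 mM KCl, 4 mM MgCl2), without ligand or with the indicated ligand. Median apparent KD per design.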
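Note: bound reporter read as fluorescence of individual clusters on recovered sequencing chips by microscopy, with normalized cluster intensities fitted with a binding model.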

Sequence | apparent KD of K4 kissing-loop reporter
GGCGGCUGCGCGCAAGCGCAGCCGGCCGAUACCAGCGCGACGGCGCGCCCUUGGCAGCGGCGCCGAGUGAUGUUCGGCCUGCCGG [#2 Same State - Theophylline A Attempt #19 (HarryS)] | 418 nM
GCGCGUCAUGUCAGCGGUGACACUGUCGAUACCAGCGCCGCAAGGCGCCCUUGGCAGCGACGUGCUGGAGUGAUGUUCCAGCGUC [#2 Exclusion - Theophylline A Attempt #22 (HarryS)] | 142 nM
GGGAGAAGAGCGGCCGCCACUCAGACAGCAGCAGAAUAUAGUGAUGUUAUAUAGGAAAGGCGGAGGAGGACCGGGCUUAAGAGGG [#20 K4 Tryptophan B Same State] | 362 nM
AGAUAGGGCUGAAGGAGCGUCGGAAAAGAAAAGAUGAAAUCCAGUGAUGUUGGAUAAAUCCGACAGGUAGGUCGCAGUUUUAUGA [#01 K4 Arginine B Same State] | 161 nM
GGCAGUGAUGUUGCCUAAGCAACGCAUGCAGAGGAUAUUCGUUCGGGAAGAAGGCUGCAGCGUUCUCUCGCGAGUGAUGUUCGCG [Same State FMN A GF 23] | 165 nM
GCCGUAGAUUGAAGGAGCGCCUUCUUACCAAGAGUGAUGUUCUUUGGUACCAUGUUCAGUAGGCAGGUAGGUCGCAAUCUACGGC | 387 nM
AGCAUUAUCAGAAGGAGCGUGUAUAAAUCAAUAGUAUUGUAUUCGAGUGAUGUUCGUAAUACACAGGUAGGUCGCUGAUAUUGCA [JR_ExcArginiB_Sub002] | 175 nM
GCCGUACGCAUGGAUACCAGCGUACGUCACCUAGCAGUGAUGUUGCUAUUGCCACGUAAACGCCCUUGGCAGCCAUGCGUACGGC | 181 nM
CAUACGCAUGGAGGAUAUGAGAUUUCUCAUAUUAUUUAAUAUUCUCAGUGAUGUUGAGAUUUAAACUCAGAAGGCCAUGUGUAUG [Ex FMN B 6] | 279 nM
CUUGUACAUGCCGAGGUAGGUGCGGGUUAGCGAGGACCGGUACGGCCGCCACUCGCCAAGUGAUGUUUGGUCCUUUGGGUCGGCA | 663 nM
AUUUUUUUAUCAGGAUAUUAGUGAUGGUUUGUUUUGUUAGUGAUGUUGAUAUUUGUUUUAUGUAUUUAAGAAGGGAUUGAGAUGU [seesullin] | 29.2 nM

Same assay, conditions: Eterna round: R107; input ligand: tryptophan 2.4 mM

Sequence | apparent KD of K4 kissing-loop reporter
UGUAUGUGAUUUGAUACCAGACCAGCUGGUGGUGUAUGAGUGAUGUUCAUGUUGGUUUGGGUCCCUUGGCAGCAAAUCGCAUACU [KL-SSTheoB30] | 11.7 nM
AGUCCACUCUAAAGAGUGGACCUAAGGGAUACCAGUGAUGUUGGUCACCCUUGGCAGCCCAGGGCCCGGGAUAAACCCGGGCCCA [#09 K4 Theophylline A Exclusion] | 113 nM
UUUUGCGCGUACGAUACCAGUAUCUGUAAGAGUGAUGUUCAGCGCUGAAGACAGCAGCGAUACCCUUGGCAGCGUUACAUGCUAG [theeternabot_sameState_KL_Theo_B_22] | 530 nM
AAUUGAGUGACGGCCGCCACUAGAGUGAUUUUUUUGUUUGAGUGAUGUUUUGAUGUUUGAUUUUGUAGGACCGGGUUGAGUGAUG [qqxzmullin] | 247 nM
UGUAUGGACUGAAGGAGCGGUAGAUAAACUGAGUGAUGUUCGGCAGAUAAAGGCGCAAGCCACCAGGUAGGUCGCAGUCCAUACU [KL-SSArg B3] | 342 nM
UUAUUGAGCGUUUGUGAGAAGGCGUUCUUCAAGGAUAUCGACGUAACGAGAAGGUGAUUCGUUCCGAGUGAUGUUCGGUACGGGC [theeternabot_sameState_KL_FMN_A_4] | 199 nM
UGGACGAAUAUCGAUAAGAUAUUCUGGGAUACCAGUGACGAAAGUCACCCUUGGCAGCUCAACUGCCAGUGAUGUUGGUAGUCCA [Astros-Elo-mod#3] | 165 nM
AGACUACCACACUGUCAAUAGACAGUGAAUUAGGAUAUGCUGAUAAGCAGAAGGAGUGAUGUUCCGAGGUAGUCAAUAAAAUAAU [FmnAX 13 U30+G66] | 211 nM
ACUCCGAGUGAUGUUAAGAGAUUCUCUGUUAAGGAUAUUUUGCGCAAAAGAAGGUAACCCGGUUUUCGUAAUCUGUUAAUGCGGA [theeternabot_exclusion_KL_FMN_A_38] | 503 nM
UCUCAAGCACAGUGAUGUUGUGCUUGGGAAGGAGCGCGUGGGAACGCAGGUAGGUCGCCCGGUAAAUCGCGUCAAUGCUAGAGGC [Arg A Ex t5] | 116 nM
UUCUACGAGUGAUGUUCGUAGUGUAAUCGCUAGGAUAUCGUUUUUUCGAGAAGGAGCGUCGAAGUGAUACGAAAGUAUCGCUUCG [FMN A 13] | 284 nM
UGUCAUUGGUCGGCCGCCACUAGGACCGGGACUUCUCUAGUGAUGUUAGUCUGGUCGGCCGCCACUAGGACCGGGACCGAUGACU [KL-SSTryp-B14 #DoubleAptamer] | 103 nM
AACAGCAAUGCGGCCGCCACUUCGAGUUCAGUGAUGUUGAAAGAAUUAAAUAAAGAUCCCAAGAGGAGGACCGGGCAGUGCUGUU [Default title] | 418 nM
GUAGUUGCGCAAGGAUAUUAGUUAAGUGAUGUUUGAUUCGGUAUUGUUUACGUACACUGACCCGAUUAAGAAGGUGCGGGCAGCG [theeternabot_exclusion_KL_FMN_B_50] | 369 nM
AAAUUUAUAUUAGAUACCAGCAAAUUGAAAGUUUAUUAUGACAAGAGUGAUGUUCUUGUAUGCCCUUGGCAGCUGGUAUGGGUUU [KL-XTheo-B26] | 108 nM
AAAUAAAGCAGUCACCCAGUGAUGUUGGAAGGAGCGUGCGAAAGCACAGGUAGGUCGCCGAUAAAGGACAAAGUCCGUGGCUGCA [#SwitchBubble 29 #K4Early] | 190 nM
UGAUAGGACAGAAGGAGCGGGCUAGUCAAAGACUAGCAAACGUUAAUAACAGGAGUGAUGUUCCAGGUAGGUCGCUGUCCUAUCU [ArgBX 25 #SwitchBubble #StaticStem] | 120 nM
UUUCGUAGAAGUGAUACCAGACUUGAAAGUGAUGUUUUCCAAUAAUUUAAAUUUUUAGCUGUCCCUUGGCAGCACAGUUUAUUUA [JR_Nu_ExcTheophyB_Sub026] | 165 nM
GGUGUUGUUUGUGCUGUUUUCCUCGUUUCUCGAGGACCGGUACGGCCGCCACUCGAGUGAUGUUUGGGUAGCGAUCCUUGUUAGU [Bdazzled - #6 Exc. Tryptophan A] | 383 nM
UUAUAUUUCAGUGAUGUUGAAAAUAUAACAGAGGAUAUGCGUUUAAGCAGAAGGCUGAAAUACUAUACUUUAAUCUAUUAAAUUU [JR_Nu_SSFMNA_Sub027] | 323 nM
GGAUAGGAUAGAGGAUAUGGAAAACACAGAAGUGACUUGUUGUGUUUAUCCAUAGGGAGUGAUGUUCCAGAAGGCUGUCCUAUCG [MatMod 22 - Jieux - Exclusion - FMN B] | 154 nM

Sequence | apparent KD of K4 kissing-loop reporter
UGUACCGAGUUAGGAUAUGUCGUCGAAAGACGAAAUGGAGUGAUGUUCCUUAAACUGCGAAAGCAGACAGAAGGGACUUGGUACU [FmnBS 29 U11] | 429 nM
AGAAACUUGUAUGUCGGGUGUGCGCGCGAUACCAGCCAAAUGGAUGGCCCUUGGCAGCGCAGCGAGUGAUGUUCGCCCGCUUGAC [Exclusion Theophylline A GF 22] | 232 nM
AGCAGUCCAGGAUCGAAAGAUCCUGAGGUCCGAGGACCGGUACGGCCGCCACUCGGAGUGAUGUUCCGAAGACUGCAAAAUAAAA [#SwitchBubble 5] | 105 nM
GAGAUAGAGGCGGCCGCCACUAGUGAUGUUGGUGAUGUUAGAUAGAGAAUAGAACGGGUACUCCCUAGGACCGGGCCAGAUGGAG [#04 K4 Tryptophan B Exclusion] | 53 nM
AGUGCACUGGCAGGAUAUGUACAGUGAUGUUGUGUAUGUCAGCAAGUCAAAGACUUGCUCUUCUGUGCAGAAGGGCCUGUGUACA [#05 K4 FMN B Exclusion] | 534 nM
AGCUCAGAGUGACUCGAUAAGAGUCACAAACGAGGACCGGUACGGCCGCCACUCGAAAUAACGAGAGUGAUGUUUUCGCUGAGCA [FiskerMod 6 - Jieux - Same State Tryptophan A] | 541 nM
UAAACCAAAUUACGUCACCUUGUCCAAUCUAAGGAUAUGUGAUUCCACAGAAGGUAGCCACGGGAGUGAUGUUCGCGUUAAGGCG [theeternabot_exclusion_KL_FMN_A_31] | 419 nM
GUGCAGUGAUGUUGCACGAGGAAAGACGAUACCAGCCGUAAAUAAGGCCCUUGGCAGCGUGGACUAGCAUAAAGUAUGCUAGCCU [Isenaonle] | 96.5 nM
CGUACGGUUUCUUUCUUUCCGUACGAGUGCCGAGGACCGGUACGGCCGCCACUCGCUACAGCCUAGUGAUGUUAGGAACGUGUUA | 54.7 nM
CCGAAGAACCAGUGAUGUUGGUUGACUAGACAGGAUAUGAGCAACAUCAGAAGGGUCUGGCUUCGGGAGUAGGUCGCGCUGACCC [Diarrebi] | 231 nM
GGCGGCUGCGCGCAAGCGCAGCCGGCCGAUACCAGCGCGACGGCGCGCCCUUGGCAGCGGCGCCGAGUGAUGUUCGGCCUGCCGG [#2 Same State - Theophylline A Attempt #19 (HarryS)] | 416 nM
GCGCGUCAUGUCAGCGGUGACACUGUCGAUACCAGCGCCGCAAGGCGCCCUUGGCAGCGACGUGCUGGAGUGAUGUUCCAGCGUC [#2 Exclusion - Theophylline A Attempt #22 (HarryS)] | 140 nM
GGGAGAAGAGCGGCCGCCACUCAGACAGCAGCAGAAUAUAGUGAUGUUAUAUAGGAAAGGCGGAGGAGGACCGGGCUUAAGAGGG [#20 K4 Tryptophan B Same State] | 316 nM
AGAUAGGGCUGAAGGAGCGUCGGAAAAGAAAAGAUGAAAUCCAGUGAUGUUGGAUAAAUCCGACAGGUAGGUCGCAGUUUUAUGA [#01 K4 Arginine B Same State] | 120 nM
GGCAGUGAUGUUGCCUAAGCAACGCAUGCAGAGGAUAUUCGUUCGGGAAGAAGGCUGCAGCGUUCUCUCGCGAGUGAUGUUCGCG [Same State FMN A GF 23] | 162 nM
GCCGUAGAUUGAAGGAGCGCCUUCUUACCAAGAGUGAUGUUCUUUGGUACCAUGUUCAGUAGGCAGGUAGGUCGCAAUCUACGGC | 390 nM
AGCAUUAUCAGAAGGAGCGUGUAUAAAUCAAUAGUAUUGUAUUCGAGUGAUGUUCGUAAUACACAGGUAGGUCGCUGAUAUUGCA [JR_ExcArginiB_Sub002] | 161 nM
GCCGUACGCAUGGAUACCAGCGUACGUCACCUAGCAGUGAUGUUGCUAUUGCCACGUAAACGCCCUUGGCAGCCAUGCGUACGGC | 445 nM
CAUACGCAUGGAGGAUAUGAGAUUUCUCAUAUUAUUUAAUAUUCUCAGUGAUGUUGAGAUUUAAACUCAGAAGGCCAUGUGUAUG [Ex FMN B 6] | 242 nM
CUUGUACAUGCCGAGGUAGGUGCGGGUUAGCGAGGACCGGUACGGCCGCCACUCGCCAAGUGAUGUUUGGUCCUUUGGGUCGGCA | 633 nM
AUUUUUUUAUCAGGAUAUUAGUGAUGGUUUGUUUUGUUAGUGAUGUUGAUAUUUGUUUUAUGUAUUUAAGAAGGGAUUGAGAUGU [seesullin] | 48.9 nM
